The values below come from publication PMC3903617 (PLoS ONE, 2014).

In general, Kd refers to the free concentration of one partner at which half of the binding sites on the other are occupied at equilibrium, for simple one-to-one binding. A word on the kon: it is a measure of how fast the partners come together. Higher therefore signals faster complex formation. The term koff denotes the rate constant with which the complex falls apart.

Substitutions are numbered along the chain they refer to. Names may count otherwise.

First the molecules themselves.
B1: 11K2 scFv mutein L-N31R (scFv, V domains shown)
VH: EVQLQQSGAELVKAGASVKLSCPASGLNIKDTYMHWVKQRPEQGLEWIGRIDPANGNTKFDPKFQGKATITADTSSNTAYLQLSSLTSEDTAVYYCARGVFGFFDYWGQGTTLTVSS
VL: DIQMTQSSSSFSVSLGDRVTITCKATEDIYRRLAWYQQKPGSAPRLLISGATSLETGVPSRFSGSGSGKDYTLSITSLQTEDVATYYCQQFWSAPYTFGGGTKLEIK
notes: PDB 2BDN heavy chain; PDB 2BDN light chain) with the stated change; also called L-D31R (printed once in the results)
B2: wild-type 11K2 scFv (scFv, V domains shown)
VH: B1 VH
VL: B1 VL with R31N
notes: VH of antibody 11K2; also the variable domain of the heavy chain of the 11K2 Fab in PDB 2BDN; linker of the scFv; VL of antibody 11K2; also the variable domain of the light chain of the 11K2 Fab in PDB 2BDN; also called WT; scFv 11K2
B3: 11K2 scFv mutein H-L27K (scFv, V domains shown)
VH: B1 VH with L27K
VL: B1 VL with R31N
notes: PDB 2BDN heavy chain) with the stated change; PDB 2BDN light chain)
B4: 11K2 scFv mutein H-D31E (scFv, V domains shown)
VH: B1 VH with D31E
VL: B1 VL with R31N
notes: as for B3
B5: 11K2 scFv mutein H-L27R (scFv, V domains shown)
VH: B1 VH with L27R
VL: B1 VL with R31N
notes: as for B3
B6: 11K2 scFv mutein L-N31K (scFv, V domains shown)
VH: B1 VH
VL: B1 VL with R31K
notes: PDB 2BDN heavy chain; PDB 2BDN light chain) with the stated change; also called L-D31K (printed once in the results)
B7: 11K2 scFv mutein H-N28Q (scFv, V domains shown)
VH: B1 VH with N28Q
VL: B1 VL with R31N
notes: as for B3
B8: 11K2 scFv mutein L-T56E (scFv, V domains shown)
VH: B1 VH
VL: B1 VL with R31N, T56E
notes: PDB 2BDN heavy chain; PDB 2BDN light chain) with the stated change
B9: 11K2 scFv mutein L-T56D (scFv, V domains shown)
VH: B1 VH
VL: B1 VL with R31N, T56D
notes: as for B8
B10: 11K2 scFv mutein L-S53D (scFv, V domains shown)
VH: B1 VH
VL: B1 VL with R31N, S53D
notes: as for B8
B11: 11K2 scFv mutein L-Y30K (scFv, V domains shown)
VH: B1 VH
VL: B1 VL with Y30K, R31N
notes: as for B8
B12: 11K2 scFv mutein L-S53E (scFv, V domains shown)
VH: B1 VH
VL: B1 VL with R31N, S53E
notes: as for B8

One experiment addresses T1, monocyte chemo-attractant protein-1 (MCP-1) (Homo sapiens (Human)., UniProt P13500).
T1 construct: MCP-1 (monocyte chemo-attractant protein-1), chemokine; synthetic gene optimised for E. coli in pET26b; Probably the mature human chemokine, as in PDB 2BDN; also called monocyte chemotactic protein-1; antigen; source: E. coli Rosetta2 (DE3), purified (Ni-NTA, SEC)
Put plainly: SPR; ionic strength series: MCP-1 immobilised, scFv injected; running buffer with 137 mM NaCl; 25°C. The settings on record: both partners purified. On the technique in general: Surface plasmon resonance follows binding to a sensor surface in real time, without labels.
In turn, B1 returned a Kd of 0.36 nM and a kon of 170000 M⁻¹ s⁻¹.

The target of another experiment is T1, monocyte chemo-attractant protein-1 …. The experiment is described as follows: SPR; Biacore T200; MCP-1 immobilised on a CM5 chip by amine coupling (~220 RU), scFv injected at 30 µl/min; PBS with 0.005% Tween-20; 25°C; global fit, 1:1 Langmuir model; KD from koff/kon. The note with it: both partners purified.
Regarding B2, the Kd was 0.8 nM, the koff stood at 0.0001 s⁻¹ and the kon amounted to 140000 M⁻¹ s⁻¹.
For B3 the same measures were 3.5 nM, 0.00039 s⁻¹ and 110000 M⁻¹ s⁻¹.
As to B4, the Kd turned out to be 5 nM, the koff turned out to be 0.00015 s⁻¹ and the kon was found to be 30000 M⁻¹ s⁻¹.
As for B5, the Kd came to 2.4 nM, the koff amounted to 0.00033 s⁻¹ and the kon stood at 140000 M⁻¹ s⁻¹.
For B6 the same measures were 290 nM, 0.098 s⁻¹ and 340000 M⁻¹ s⁻¹.
As for B7, binding was put at a Kd of 8.5 nM, the koff was determined as 0.0019 s⁻¹ and the kon amounted to 220000 M⁻¹ s⁻¹.
For the molecule B8, binding was characterised by a dissociation constant (Kd) of 0.25 nM, the off-rate constant (koff) was determined as 2.6e-05 s⁻¹ and the kon stood at 100000 M⁻¹ s⁻¹.
For B9 the same measures were 0.39 nM, 8.6e-05 s⁻¹ and 220000 M⁻¹ s⁻¹.
The molecule B10 yielded a Kd of 0.61 nM, a koff of 5.5e-05 s⁻¹ and a kon of 90000 M⁻¹ s⁻¹.
On the same counts, the results for B1 are 0.17 nM, 2.2e-05 s⁻¹ and 130000 M⁻¹ s⁻¹.
On to B11, for which the Kd amounted to 2.5 nM, the off-rate (koff) stood at 0.00031 s⁻¹ and the kon is 130000 M⁻¹ s⁻¹.
In turn, B12 registered a Kd of 0.19 nM, a koff of 1.4e-05 s⁻¹ and a kon of 73000 M⁻¹ s⁻¹.

Another experiment shares this target. The experiment is described as follows: SPR; temperature dependence of KD, van't Hoff approximation; MCP-1 immobilised, scFv injected. The settings on record: both partners purified.
As to B2, the dH was -7.3 kcal/mol.
B8: the dH is -14.5 kcal/mol.
On the same count and under the same terms, in the case of B9 it was -11.7 kcal/mol.
The same measure, in the same setting: then B10, with -13.3 kcal/mol.
Take B1: the dH is -25.6 kcal/mol.
B12 showed a dH of -15.1 kcal/mol.

Another experiment has the same target. Put plainly: SPR; ionic strength series: MCP-1 immobilised, scFv injected; running buffer with 500 mM NaCl; 25°C. The note with it: both partners purified.
B1 showed a Kd of 0.47 nM.
